Experimental data as given in paper PMC10700544, “Acetylation regulates the oligomerization state and activity of RNase J, the Helicobacter pylori major ribonuclease” (Nature Communications, 2023).

Biological target: the molecule itself
Assay: crystal structure; crystals from 0.1 M HEPES pH 7.5, 25% wt/v polyethylene glycol 1000; space group P4(1)22; one monomer in the asymmetric unit, tetramer by crystal symmetry

B1: RNase J residues 139–691 (H. pylori strain 26695) with a C-terminal hexa-histidine tag (domain or fragment, Helicobacter pylori strain 26695, UniProt P56185 137-689, looked up)
chain: SKASVKITPLGGLGEIGGNMMVIETPKSAIVIDAGMSFPKEGLFGVDILIPDFSYLHQIKDKIAGIIITHAHEDHIGATPYLFKELQFPLYGTPLSLGLIGSKFDEHGLKKYRSYFKIVEKRCPISVGEFIIEWIHITHSIIDSSALAIQTKAGTIIHTGDFKIDHTPVDNLPTDLYRLAHYGEKGVMLLLSDSTNSHKSGTTPSESTIAPAFDTLFKEAQGRVIMSTFSSNIHRVYQAIQYGIKYNRKIAVIGRSMEKNLDIARELGYIHLPYQSFIEANEVAKYPDNEILIVTTGSQGETMSALYRMATDEHRHISIKPNDLVIISAKAIPGNEASVSAVLNFLIKKEAKVAYQEFDNIHVSGHAAQEEQKLMLRLIKPKFFLPVHGEYNHVARHKQTAISCGVPEKNIYLMEDGDQVEVGPAFIKKVGTIKSGKSYVDNQSNLSIDTSIVQQREEVASAGVFVATIFVNKNKQALLESSQFSSLGLVGFKDEKPLIKEIQGGLEVLLKSSNAEILNNPKKLEDHTRNFIRKALFKKFRKYPAIICHAHSF
notes: the results say 137–691); One monomer in the asymmetric unit; the tetramer (dimer-of-dimers) is generated by crystal symmetry; The CTD (587–691) is poorly ordered in the crystal; also called RNase J 139–691; C1hRSEj; source: E. coli, co-expressed with RhpA 21–465, purified (HiTrap Ni column, HALO resin flow-through, S200 SEC)
- stoichiometry N: 4
